Test results as given in the supplement of paper PMC9170038.

Test system: MS2 coat protein
Assay: apparent KD of MS2 coat protein; designed switch direction (-1 OFF switch, 1 ON switch): 1; higher = weaker reporter binding
Summary of the method: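 Apparent KD, taken as the median over clusters for each design, was obtained by curve-fitting normalised cluster fluorescence. Designed RNA switches had been transcribed on Illumina chips by stalled E. coli RNA polymerase and titrated with SNAP-549-labelled MS2 coat protein, doubling from 0.7 or 1.5 nM to 3 µM.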

[1] = Eterna round: R95, input ligand: FMN 200 uM
[2] = Eterna round: R95, input ligand: microRNA oligo, concentration not stated
[3] = Eterna round: R95, input ligand: none
[4] = input ligand: microRNA oligo, concentration not stated

Row | Sequence | apparent KD of MS2 coat protein [1] | apparent KD of MS2 coat protein [2] | apparent KD of MS2 coat protein [3] | apparent KD of MS2 coat protein (input ligand: FMN 200 uM) | apparent KD of MS2 coat protein [4] | apparent KD of MS2 coat protein (input ligand: none)
1 | AGUCCAGCCUGAGCUGGACAAAAGCGUGUACAUGAGGAUCACCCAUGUCAUGUACAAGCUUUUUGCUCGUCUUAAUA [Zipper 49 - 6] (puzzle: Sensor for hsa-mir-208a) | 106 nM | 21.2 nM | 83.1 nM | – | – | –
2 | AGUCCAGCGAGAGCUGGACAAAAGCAUGUACAUGAGGAUCACCCAUGUCAUGUACAAGCUUUUUGCUCGUCUUAAAA [Mat - hsa-mir-208a - Mod of JL - D5] (puzzle: Sensor for hsa-mir-208a) | 332 nM | 13.5 nM | 618 nM | – | – | –
3 | AUAAAACAUGAGGAUCACCCAUGUCAACAAAGUCGAGGAUAUGGGCAAAUAAAAUAAGAACCAGAAGGCGUAUAAU [salish99_ss1_r3_034] (puzzle: Same State 1) | – | 341 nM | – | – | – | –
4 | AUAAAACAUGAGGAUCACCCAUGUCAACAAAGUCGAGGAUAUGGGCAAAUAAAAUAAGUACCAGAAGGCGAAUAAU [salish99_ss1_r3_017] (puzzle: Same State 1) | 34.1 nM | 106 nM | 108 nM | – | – | –
5 | AUAAAACAUGAGGAUCACCCAUGUCAACAAAGUCGAGGAUAUUGGCAAAUAAAAUAAGAACCAGAAGGCGAAUAAU [salish99_ss1_r3_050] (puzzle: Same State 1) | 17.5 nM | 23.1 nM | 23.4 nM | – | – | –
6 | AUAAAACAUGAGGAUCACCCAUGUCUCCAAAGUCGAGGAUAUGGGCAAAUAAUAUAAGAACCAGAAGGCGAAUAAU [SS1 Teenbexe 2] (puzzle: Same State 1) | 177 nM | 179 nM | 374 nM | – | – | –
7 | AUAAAUAACACAGGAUAUCCGCACGGGUAGUGCGGAGAAGGGUGAACGUCGGCUCUCGCCAACAUGAGGAUCACCCAUGUAAAG [Letiusle] (Eterna round: R96, puzzle: Same State NG 1) | – | – | – | 512 nM | 27.7 nM | 41.1 nM
8 | AUCAAAAGAGGAGGAUAUGCAGAGGAUCACCCUGUAGAAGGCCACAGAGGAGGAUAUGCAGAGGAUCACCCUGUAGAAGGCCUC [pwkr ssNG DX.16] (Eterna round: R96, puzzle: Same State NG 1) | – | – | – | 37.3 nM | 156 nM | 189 nM
9 | AUCCGGAAGCGAGGAUAUGCAGAGGAUCACCCUGCAGAAGGCGCGAUCGCGAGGAUAUGCAGAGGAUCACCCUGCAGAAGGCGC [pwkr ssNG DX.31] (Eterna round: R96, puzzle: Same State NG 1) | – | – | – | 15.5 nM | 20.3 nM | 25.1 nM
10 | AUCCUAAACACAGGAUAUCCCAGUCAUGAUCUGGGAGAAGGGUGGCCACAUGAGGAUCACCCAUGUGAAGUGCCAGAGGCACGA [MOD3 Xexeraed] (Eterna round: R96, puzzle: Same State NG 1) | – | – | – | 397 nM | 359 nM | 582 nM
11 | AUGAAGAAUUAAGGAUAUUGAUUACAUAUGUUUAACAUGAGGAUCACCCAUGUGGGUUGCGGUAUCGAGAAGGUAAAUUACUAG [JL SSNG2 1.48] (Eterna round: R96, puzzle: Same State NG 2) | – | – | – | 150 nM | 99.6 nM | 128 nM
12 | AUGCCAAAUGGAGGAUAUGGAGCCUUAUUGGCUCCAGAAGGUCAGACAUGAGGAUCACCCAUGUGGCAGUGGUCUAAUGACCAC [Eli NG1ss - 39] (Eterna round: R96, puzzle: Same State NG 1) | – | – | – | 126 nM | 392 nM | 638 nM
13 | AUUAAACAUGAGGAUCACCCAUGUAAUAUUAUGGGAGGAUAUGCGAAUUUAAUUAAUUAAGCAGAAGGCCUAAUUA [Mat - Same State 1 - D101] (puzzle: Same State 1) | – | 106 nM | – | – | – | –
14 | AUUAAACAUGAGGAUCACCCAUGUCAACAAUGUCGAGGAUAUGGGCAAAUAAAAUAAGAACCAGAAGGCGAAUAAU [salish99_ss1_r3_076] (puzzle: Same State 1) | 39.9 nM | 426 nM | 303 nM | – | – | –
15 | AUUAAUAAUCGAGGAUAUCACGUCGAAUAGACGUGAGAAGGCGAUCAUAACAUGAGGAUCACCCAUGUAUUACAUGAAAUUAAU [SSNG1/4-B4] (Eterna round: R96, puzzle: Same State NG 1) | – | – | – | 22.4 nM | 20.5 nM | 38.1 nM
16 | AUUAAUAAUCUAGGAUAUCACGUCGAUUAGACGUGAGAAGGAGAUCAUAACAUGAGGAUCACCCAUGUAUUACAUGAAGUUAAU [SSNG1/7-B2] (Eterna round: R96, puzzle: Same State NG 1) | – | – | – | 27.5 nM | 28.8 nM | 38.1 nM
17 | AUUACUAACAUAGGAUAUCAUGCGAAAAUUGCGUGAGAAGGGUGGACACUGUCAUUCUCGGAGCACAUGAGGAUCACCCAUGUG [SameState NG1 #70] (Eterna round: R96, puzzle: Same State NG 1) | – | – | – | 80.6 nM | 42.4 nM | 59 nM
18 | AUUACUAACAUAGGAUAUCAUGCGAAAAUUGCGUGAGAAGGGUGGACACUGUCUUUCUCGGAGCACAUGAGGAUCACCCAUGUG [SameState NG1 #69] (Eterna round: R96, puzzle: Same State NG 1) | – | – | – | 81.4 nM | 41.5 nM | 65 nM
19 | AUUAGUGGUGGAGGAUAUGGGAAAGGAAGUGUACUAGAAGGCCACCGCCCUCUAGCACAUGAGGAUCACCCAUGUAUAGAGCCC [PowerStrip SSNG 1.14] (Eterna round: R96, puzzle: Same State NG 1) | – | – | – | 243 nM | 25.8 nM | 88.2 nM
20 | AUUAUAAAUGCAGGAUAUGAUUAACAUGAGGAUCACCCAUGUGGUGUUGUGAGUAAGGAGAGUGAUCAGAAGGGCAUUUUUUUU [JMF's solution 24] (Eterna round: R96, puzzle: Same State NG 2) | – | – | – | 620 nM | 343 nM | 555 nM
21 | AUUAUUAAUGCAGGAUAUGAUUAACAUGAGGAUCACCCAUGUGGUGUUGUGAGUAAGGAGAGAGAUCAGAAGGGCAUUUUUUUU [JMF's solution 5] (Eterna round: R96, puzzle: Same State NG 2) | – | – | – | 317 nM | 263 nM | 361 nM
22 | AUUAUUUAUGCAGGAUAUGAUUAACAUGAGGAUCACCCAUGUGGUGUUGUGAGUAAGGAGAGUGAUCAGAAGGGCAUUUUUUGU [JMF's solution 54] (Eterna round: R96, puzzle: Same State NG 2) | – | – | – | 713 nM | 531 nM | 464 nM
23 | AUUGCUAGCGCAGGAUAUGAUGCGAAAAUUGCGUCAGAAGGGUGUACUCUCUCAUUGCGGGAGGACAUGAGGAUCACCCAUGUC [SameState NG1 #83] (Eterna round: R96, puzzle: Same State NG 1) | – | – | – | 66.6 nM | 71.5 nM | 83.3 nM
24 | AUUGCUUACGCAGGAUAUGAUGCGAAAAUUGCGUCAGAAGGGUGAAGUGACUCGUUGCAACAGGACAUGAGGAUCACCCAUGUC [SameState NG1 #91] (Eterna round: R96, puzzle: Same State NG 1) | – | – | – | 89 nM | 127 nM | 141 nM
25 | AUUUAACAAGCUUUUUGCUCGUCUUAUAAACAUGAGGAUCACCCAUGUAAUAGCGUGAGAGUAAAUAUUUAAAUAAU [JMF 93] (puzzle: Sensor for hsa-mir-208a) | 14.5 nM | 48.3 nM | 11.1 nM | – | – | –
26 | AUUUUUAAUGCAGGAUAUGAUUAACAUGAGGAUCACCCAUGUGGUGUUGUGAGUAAGGAGAGUGAUCAGAAGGGCAUCUUUUUU [JMF's solution 81] (Eterna round: R96, puzzle: Same State NG 2) | – | – | – | 567 nM | 529 nM | 490 nM
27 | AUUUUUAAUGCAGGAUAUGAUUAACAUGAGGAUCACCCAUGUGGUGUUGUGAGUAAGGAGAGUGAUCAGAAGGGCAUUUUUUCU [JMF's solution 88] (Eterna round: R96, puzzle: Same State NG 2) | – | – | – | 340 nM | 391 nM | 500 nM
28 | CAAGAAAACGCAGGAUAUACCCGAACAACCCGGGUAGAAGGGUGACACAUGAGGAUCACCCAUGUACAUGGCAUUAGCCAUGGA [Esusxebeis] (Eterna round: R96, puzzle: Same State NG 1) | – | – | – | 1020 nM | 262 nM | 430 nM
